Reference: US20170326246A1 (INSTITUT PASTEUR, published 2017)
*1 amine or outer side, *2 acyl side, *3 side chain or, on linkers, in order; H or OH if unused. [ ]: non-standard residue; d: D form. U1 = 4-cyclohexylmethoxy-L-phenylalanine, O=C([C@H](Cc1ccc(OCC2CCCCC2)cc1)N[*:1])[*:2]; Bip = N[C@@H](Cc1ccc(-c2ccccc2)cc1)C(=O)O; Tpa = thiopropionic acid

B1: mCD4.2 (peptide)
peptide: Tpa-NLHKCQLRCSSLGLLGRCA[dP]T[U1]CACV-NH2
modifications: disulfide (positions not given here)
B2: M48U1-PS1 (peptide)
peptide 1: NLHFCQLRCKSLGLLGRCAPTFCACV
peptide 2: SYDYSYDYSYDYS
modifications: not fully specified; N-terminal gamma-aminobutyric acid (gammaAbu) acylated with 3-thiopropionyl (from SATP); all six Tyr are sulfotyrosine (YSO3); N-terminal Tpa; D-proline at position 21; U1 (4-cyclohexylmethoxy-L-phenylalanine) at position 23; C-terminal amide; Lys11 N-epsilon carries the PEO2-maleimide linker bound to the thiol of the PS1 chain
B3: mCD4.1 (peptide)
peptide: Tpa-NLHKCQLRCSSLGLLGRCAGS[Bip]CACV-NH2
modifications: disulfide (positions not given here); also: three disulphide bridges, pairing not given here
B4: mCD4.1-PS1 (peptide)
peptide 1: NLHKCQLRCSSLGLLGRCAGSFCACV
peptide 2: SYDYSYDYSYDYS
modifications: N-terminal gamma-aminobutyric acid (gammaAbu) acylated with 3-thiopropionyl (from SATP); all six Tyr are sulfotyrosine (YSO3); N-terminal Tpa (thiopropionic acid); Bip at position 23; C-terminal …; Lys5 N-epsilon carries the PEO2-maleimide linker bound to the thiol of the PS1 chain
B5: mCD4.3 (peptide)
peptide: Tpa-NLHKCQLRCRSLGLLGRCA[dP]T[U1]CACV-NH2
modifications: disulfide (positions not given here)
B6: mCD4.3-PS1 (peptide)
peptide 1: NLHKCQLRCRSLGLLGRCAPTFCACV
peptide 2: SYDYSYDYSYDYS
modifications: not fully specified; N-terminal gamma-aminobutyric acid (gammaAbu) acylated with 3-thiopropionyl (from SATP); all six Tyr are sulfotyrosine (YSO3); N-terminal Tpa; D-proline at position 21; U1 (4-cyclohexylmethoxy-L-phenylalanine) at position 23; C-terminal amide; Lys5 N-epsilon carries the PEO2-maleimide linker bound to the thiol of the PS1 chain
B7: mCD4.2-PS1 (peptide)
peptide 1: NLHKCQLRCSSLGLLGRCAPTFCACV
peptide 2: SYDYSYDYSYDYS
modifications: not fully specified; N-terminal gamma-aminobutyric acid (gammaAbu) acylated with 3-thiopropionyl (from SATP); all six Tyr are sulfotyrosine (YSO3); N-terminal Tpa; D-proline at position 21; U1 (4-cyclohexylmethoxy-L-phenylalanine) at position 23; C-terminal amide; Lys5 N-epsilon carries the PEO2-maleimide linker bound to the thiol of the PS1 chain
B8: M48U1 (peptide)
peptide: Tpa-NLHFCQLRCKSLGLLGRCA[dP]T[U1]CACV-NH2
modifications: disulfide (positions not given here)

Tests used:
Experiment in all cases: cell-based or functional assay
[1] = biological target: gp120 of viral strain VI820 (HIV, strain VI820)
[2] = biological target: gp120 of viral strain SHIV162p3 (SHIV162p3)
[3] = biological target: gp120 of viral strain IIIB (HIV, strain IIIB)
[4] = biological target: gp120 of viral strain MP568 (CRF02) (HIV, strain MP568 (CRF02))
[5] = biological target: gp120 of viral strain VI824 (HIV, strain VI824)
gp120 of viral strain MN = gp120 of viral strain MN (HIV, strain MN, UniProt P05877 32-513)
[6] = biological target: gp120 of viral strain Bal (HIV, strain Bal)
[7] = biological target: gp120 of viral strain pREJO.c/2864 cl2 (HIV, strain pREJO.c/2864 cl2)
[8] = biological target: gp120 of viral strain Ca10-3 (CRF01) (HIV, strain Ca10-3 (CRF01))
[9] = biological target: gp120 of viral strain p246F10 (HIV, strain p246F10)
[10] = biological target: gp120 of viral strain SF162 (HIV, strain SF162, UniProt P19550 32-502)
[11] = biological target: gp120 of viral strain VI1888 (CRF01) (HIV, strain VI1888 (CRF01))
[12] = biological target: gp120 of viral strain VI829 (HIV, strain VI829)

Binder	EC50 (antiviral activity, TZM-bl cells, luciferase) [1] [nM]	EC50 (antiviral activity, TZM-bl cells, luciferase) [2] [nM]	EC50 (antiviral activity, TZM-bl cells, luciferase) [3] [nM]	EC50 (antiviral activity, TZM-bl cells, luciferase) [4] [nM]	EC50 (antiviral activity, TZM-bl cells, luciferase) [5] [nM]	EC50 (antiviral activity, TZM-bl cells, luciferase) (gp120 of viral strain MN) [nM]	EC50 (antiviral activity, TZM-bl cells, luciferase) [6] [nM]	EC50 (antiviral activity, TZM-bl cells, luciferase) [7] [nM]	EC50 (antiviral activity, TZM-bl cells, luciferase) [8] [nM]	EC50 (antiviral activity, TZM-bl cells, luciferase) [9] [nM]	EC50 (antiviral activity, TZM-bl cells, luciferase) [10] [nM]	EC50 (antiviral activity, TZM-bl cells, luciferase) [11] [nM]	EC50 (antiviral activity, TZM-bl cells, luciferase) [12] [nM]
B1	6.1	69	0.22	155	56	0.6	2	76	4.73	718	1.24	9760	512
B2	0.1	3.4	0.02	15	2.2	0.12	0.13		0.6		0.05	1070	1.1
B3	1690	5370	29	7930	3180	20	236	108	96	> 10000	130	> 1000	> 10000
B4	25	36	0.013	310	40	0.08	0.54	0.66	0.57	723	0.11	1100	16
B5	4.2	29	0.16	204	39	0.37	2.3	46	3.1	510	0.66	8020	221
B6	0.024	1.4	0.0025	4.2	0.7	0.026	0.031	0.28	0.076	33	0.008	1210	3.6
B7	0.031	2.2	0.007	4.9	0.68	0.046	0.034	0.27	0.12	58	0.01	1060	4
B8	3.8	24	0.08	129	29	0.25	0.96		2.7		1	8420	59
